Laboratory results reported in US5985836A, “Alpha-1 proteinase inhibitor binding peptides” (Bayer Corporation, priority 1998, dated 1999).
Values belong to the substance of their own block, whether it stands above or below them. Ends that are not written are not given here.

Tests used:
A1PI [1] = target: T1, A1PI (Homo sapiens, UniProt P01009); assay: A1PI purification from 5 mg hSA + 1 mg A1PI on peptide column, A1PI mass balance; format: binding; settings: A1PI, 5 mg hSA + 1 mg A1PI
T1 construct: Human plasma is currently the only approved source of therapeutic AlPI
T1 sequence (P01009 25-418): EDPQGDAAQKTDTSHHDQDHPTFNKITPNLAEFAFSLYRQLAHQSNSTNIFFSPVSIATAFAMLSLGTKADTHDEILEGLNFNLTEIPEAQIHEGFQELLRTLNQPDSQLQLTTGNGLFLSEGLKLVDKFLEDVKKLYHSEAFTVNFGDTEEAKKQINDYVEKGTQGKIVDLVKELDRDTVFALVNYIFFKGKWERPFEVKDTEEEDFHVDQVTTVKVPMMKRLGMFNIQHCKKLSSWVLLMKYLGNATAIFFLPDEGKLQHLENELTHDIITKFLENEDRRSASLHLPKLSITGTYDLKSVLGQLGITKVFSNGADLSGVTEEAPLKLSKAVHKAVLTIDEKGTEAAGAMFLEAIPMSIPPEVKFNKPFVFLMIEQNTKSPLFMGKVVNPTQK
Procedure: (§1) Confirmatory binding assays were performed in a column chromatographic format on a microbore HPLC using individual peptide sequences synthesized directly onto the Toyopearl 650 M Chelate resin which had been modified with Totda followed by an alanine residue (A-Totda-Toyopearl), at a final substitution density of 0.1 mmole/g resin. The resin was packed into 0.4×5 cm columns (Thomson, Springfield, Va.) and tested on the Michrom HPLC system (Michrom BioResources, Auburn, Calif.). The elution program for all trials utilized the following method. The column was pre-equilibrated with equilibration buffer (as above). 1 ml of sample was injected and allowed sufficient time to flowthrough the column using equilibration buffer. The column was then washed with step elutions of 1M NaCl and 3M NaCl in equilibration buffer. The column was exposed to equilibration buffer with 0.1M NaCl. Any remaining protein was eluted with elution buffer (2% by volume glacial acetic acid in water).
(§2) A Gilson FC204 fraction collector at the HPLC outlet collected individual eluates for further analysis. Fractions collected from the 2% acetic acid eluates were neutralized with 2M Tris, pH 10.5 to bring the pH to neutrality. The protein samples were reconstituted in equilibration buffer unless otherwise stated. The samples were analyzed by the integration of the absorbance at 280 nm or by immunonephelometry. The specific method of determination is presented for each figure.
Columns were assayed with a mixture of 5 mg human serum albumin (hSA)+1 mg AlPI at 4° C. (Table 4, Seq. ID 1-11, 15, 17) and 20° C. (Table 5, Seq. ID 1-10, 13, 15, 17). The chromatography method was modified to provide for a 10 minute residence time of sample in the column by decreasing the flow to 17 μl/min (10 cm/hr) upon injection. Following the incubation, the flow was set at 865 μl/min (413 cm/hr) for the step elutions of 1M NaCl, 3M NaCl, and 2% acetic acid. The mass balances presented are based upon immunonephelometry. The Percent Eluted value is protein-specific and based on the amount of the protein eluted in a […]

A1PI [2] = target: T1, A1PI; assay: A1PI binding on peptide-resin column, injection of 1 mg A1PI in equilibration buffer; settings: for Percent AlPI Eluted by Fraction, 1M NaCl / Percent AlPI Eluted by Fraction, 2% Acetic Acid / Percent AlPI Eluted by Fraction, Flowthrough: sequence order, 1 mg AlPI; for % of Total A1PI Eluted by Fraction (Based on Absorbance at 280 nm), 1M NaCl / % of Total A1PI Eluted by Fraction (Based on Absorbance at 280 nm), 2% Acetic Acid / % of Total A1PI Eluted by Fraction (Based on Absorbance at 280 nm), Flowthrough: 1 mg A1PI
Procedure: as §1, §2
Tables 2 and 3 present the elution profiles for 19 sequences based on the injection of 1 mg AlPI in equilibration buffer at 4° C. and 20° C., respectively. The columns were run at a constant flow rate of865 μl/min (413 cm/hr) or 523 μl/min (250 cm/hr). No dependence of the elution profile with flow rate was found. The Percent AlPI Eluted by Fraction represents the amount eluted in the flowthrough, 1M NaCl wash, and 2% acetic acid fractions relative to the total AlPI eluted. The percentages are based on either the integration of the peak areas at […]

[3] = 4° C., relative to total eluted
[4] = 20° C., * Below detection limit
[5] = 20° C., relative to total eluted
[6] = 1 mg A1PI in equilibration buffer, 4° C.
[7] = 1 mg A1PI in equilibration buffer, 20° C.
[8] = Table 19, 4° C., * Below detection limit
[9] = Table 19, 4° C., relative to total loaded
[10] = Table 19, 20° C., * Below detection limit
[11] = Table 19, 20° C., relative to total loaded

Mass Protein per Eluate Fraction, 1M NaCl (A1PI [1]; 4° C., * Below detection limit): 0.68 mg | Mass Protein per Eluate Fraction, Flow (A1PI [1]; 4° C., * Below detection limit): 0.03 mg | Percent Eluted by Fraction, 1M NaCl (A1PI [1]; [3]): 96% | Percent Eluted by Fraction, 2% Ac. Acid (A1PI [1]; [3]): 0% | Percent Eluted by Fraction, 3M NaCl (A1PI [1]; [3]): 0% | Percent Eluted by Fraction, Flow (A1PI [1]; [3]): 4% | Mass Protein per Eluate Fraction, 1M NaCl (A1PI [1]; [4]): 0.58 mg | Mass Protein per Eluate Fraction, 2% Ac. Acid (A1PI [1]; [4]): 0.11 mg | Mass Protein per Eluate Fraction, 3M NaCl (A1PI [1]; [4]): 0.00 mg | Percent Eluted by Fraction, 1M NaCl (A1PI [1]; [5]): 83% | Percent Eluted by Fraction, 2% Ac. Acid (A1PI [1]; [5]): 17% | Percent Eluted by Fraction, 3M NaCl (A1PI [1]; [5]): 0% | Percent Eluted by Fraction, Flow (A1PI [1]; [5]): 0% | Percent A1PI Eluted by Fraction Based on Absorbance at 280 nm, 1M NaCl (A1PI [2]; [6]): 94% | Percent A1PI Eluted by Fraction Based on Absorbance at 280 nm, 2% Acetic Acid (A1PI [2]; [6]): 6% | Percent A1PI Eluted by Fraction Based on Absorbance at 280 nm, Flowthrough (A1PI [2]; [6]): 0% | Percent A1PI Eluted by Fraction, 1M NaCl (A1PI [2]; [7]): 81% | Percent A1PI Eluted by Fraction, 2% Acetic Acid (A1PI [2]; [7]): 19% | Percent A1PI Eluted by Fraction, Flowthrough (A1PI [2]; [7]): 0%
Substance: IWRKYS

Mass Protein per Eluate Fraction, 1M NaCl (A1PI [1]; [8]): 0.11 mg | Mass Protein per Eluate Fraction, 2% Acetic Acid (A1PI [1]; [8]): 0.25 mg | Mass Protein per Eluate Fraction, Flow (A1PI [1]; [8]): 0.48 mg | Percent Eluted by Fraction, 1M NaCl (A1PI [1]; [9]): 13% | Percent Eluted by Fraction, 2% Acetic Acid (A1PI [1]; [9]): 30% | Percent Eluted by Fraction, 3M NaCl (A1PI [1]; [9]): 0% | Percent Eluted by Fraction, Flow (A1PI [1]; [9]): 57% | Mass Protein per Eluate Fraction, 1M NaCl (A1PI [1]; [10]): 0.04 mg | Mass Protein per Eluate Fraction, 2% Acetic Acid (A1PI [1]; [10]): 0.54 mg | Mass Protein per Eluate Fraction, Flow (A1PI [1]; [10]): 0.22 mg | Percent Eluted by Fraction, 1M NaCl (A1PI [1]; [11]): 5% | Percent Eluted by Fraction, 2% Acetic Acid (A1PI [1]; [11]): 68% | Percent Eluted by Fraction, 3M NaCl (A1PI [1]; [11]): 0% | Percent Eluted by Fraction, Flow (A1PI [1]; [11]): 28% | binding of AlPI (in words) (A1PI [2]): excellent binding | Percent AlPI Eluted by Fraction, 1M NaCl (A1PI [2]; 4° C.): 27% | Percent AlPI Eluted by Fraction, 2% Acetic Acid (A1PI [2]; 4° C.): 65% | Percent AlPI Eluted by Fraction, Flowthrough (A1PI [2]; 4° C.): 8% | Percent AlPI Eluted by Fraction, 1M NaCl (A1PI [2]; 20° C.): 3% | Percent AlPI Eluted by Fraction, 2% Acetic Acid (A1PI [2]; 20° C.): 90% | Percent AlPI Eluted by Fraction, Flowthrough (A1PI [2]; 20° C.): 7%
Substance: RVLFIV: reversed sequence of VIFLVR

% of Total A1PI Eluted by Fraction (Based on Absorbance at 280 nm), 1M NaCl (A1PI [2]; VIFLVR point mutations, 4° C.): 55% | % of Total A1PI Eluted by Fraction (Based on Absorbance at 280 nm), 2% Acetic Acid (A1PI [2]; VIFLVR point mutations, 4° C.): 45% | % of Total A1PI Eluted by Fraction (Based on Absorbance at 280 nm), Flowthrough (A1PI [2]; VIFLVR point mutations, 4° C.): 0% | % of Total A1PI Eluted by Fraction (Based on Absorbance at 280 nm), 1M NaCl (A1PI [2]; VIFLVR point mutations, 20° C.): 8% | % of Total A1PI Eluted by Fraction (Based on Absorbance at 280 nm), 2% Acetic Acid (A1PI [2]; VIFLVR point mutations, 20° C.): 92% | % of Total A1PI Eluted by Fraction (Based on Absorbance at 280 nm), Flowthrough (A1PI [2]; VIFLVR point mutations, 20° C.): 0%
Substance: V A F L V R: point mutation of VIFLVR, position 2 (VAFLVR)

% of Total A1PI Eluted by Fraction (Based on Absorbance at 280 nm), 1M NaCl (A1PI [2]; VIFLVR point mutations, 4° C.): 35% | % of Total A1PI Eluted by Fraction (Based on Absorbance at 280 nm), 2% Acetic Acid (A1PI [2]; VIFLVR point mutations, 4° C.): 65% | % of Total A1PI Eluted by Fraction (Based on Absorbance at 280 nm), Flowthrough (A1PI [2]; VIFLVR point mutations, 4° C.): 0%
Substance: V H F L V R: point mutation of VIFLVR, position 2 (VHFLVR)

% of Total A1PI Eluted by Fraction (Based on Absorbance at 280 nm), 1M NaCl (A1PI [2]; Trp position mutations, 4° C.): 0% | % of Total A1PI Eluted by Fraction (Based on Absorbance at 280 nm), 2% Acetic Acid (A1PI [2]; Trp position mutations, 4° C.): 0% | % of Total A1PI Eluted by Fraction (Based on Absorbance at 280 nm), Flowthrough (A1PI [2]; Trp position mutations, 4° C.): 100% | % of Total A1PI Eluted by Fraction (Based on Absorbance at 280 nm), 1M NaCl (A1PI [2]; Trp position mutations, 20° C.): 0% | % of Total A1PI Eluted by Fraction (Based on Absorbance at 280 nm), 2% Acetic Acid (A1PI [2]; Trp position mutations, 20° C.): 16% | % of Total A1PI Eluted by Fraction (Based on Absorbance at 280 nm), Flowthrough (A1PI [2]; Trp position mutations, 20° C.): 84%
Substance: V I D L V R: VIWLVR with Trp at position 3 replaced by Asp (VIDLVR)

% of Total A1PI Eluted by Fraction (Based on Absorbance at 280 nm), 1M NaCl (A1PI [2]; VIFLVR point mutations, 4° C.): 46% | % of Total A1PI Eluted by Fraction (Based on Absorbance at 280 nm), 2% Acetic Acid (A1PI [2]; VIFLVR point mutations, 4° C.): 54% | % of Total A1PI Eluted by Fraction (Based on Absorbance at 280 nm), Flowthrough (A1PI [2]; VIFLVR point mutations, 4° C.): 0% | % of Total A1PI Eluted by Fraction (Based on Absorbance at 280 nm), 1M NaCl (A1PI [2]; VIFLVR point mutations, 20° C.): 11% | % of Total A1PI Eluted by Fraction (Based on Absorbance at 280 nm), 2% Acetic Acid (A1PI [2]; VIFLVR point mutations, 20° C.): 89% | % of Total A1PI Eluted by Fraction (Based on Absorbance at 280 nm), Flowthrough (A1PI [2]; VIFLVR point mutations, 20° C.): 0%
Substance: V I F A V R: point mutation of VIFLVR, position 4 (VIFAVR)

% of Total A1PI Eluted by Fraction (Based on Absorbance at 280 nm), 1M NaCl (A1PI [2]; VIFLVR point mutations, 4° C.): 25% | % of Total A1PI Eluted by Fraction (Based on Absorbance at 280 nm), 2% Acetic Acid (A1PI [2]; VIFLVR point mutations, 4° C.): 75% | % of Total A1PI Eluted by Fraction (Based on Absorbance at 280 nm), Flowthrough (A1PI [2]; VIFLVR point mutations, 4° C.): 0% | % of Total A1PI Eluted by Fraction (Based on Absorbance at 280 nm), 1M NaCl (A1PI [2]; VIFLVR point mutations, 20° C.): 0% | % of Total A1PI Eluted by Fraction (Based on Absorbance at 280 nm), 2% Acetic Acid (A1PI [2]; VIFLVR point mutations, 20° C.): 25% | % of Total A1PI Eluted by Fraction (Based on Absorbance at 280 nm), Flowthrough (A1PI [2]; VIFLVR point mutations, 20° C.): 75%
Substance: V I F L A R: point mutation of VIFLVR, position 5 (VIFLAR)
